Results on one molecule are retold here after publication PMC2867299 (The Journal of Cell Biology, 2010).

The test addresses T1, GST-Myo4p-L-GT (Myo4p linker and globular tail, from residue 1042) (S. cerevisiae, UniProt P32492 1042-1471).
T1 sequence: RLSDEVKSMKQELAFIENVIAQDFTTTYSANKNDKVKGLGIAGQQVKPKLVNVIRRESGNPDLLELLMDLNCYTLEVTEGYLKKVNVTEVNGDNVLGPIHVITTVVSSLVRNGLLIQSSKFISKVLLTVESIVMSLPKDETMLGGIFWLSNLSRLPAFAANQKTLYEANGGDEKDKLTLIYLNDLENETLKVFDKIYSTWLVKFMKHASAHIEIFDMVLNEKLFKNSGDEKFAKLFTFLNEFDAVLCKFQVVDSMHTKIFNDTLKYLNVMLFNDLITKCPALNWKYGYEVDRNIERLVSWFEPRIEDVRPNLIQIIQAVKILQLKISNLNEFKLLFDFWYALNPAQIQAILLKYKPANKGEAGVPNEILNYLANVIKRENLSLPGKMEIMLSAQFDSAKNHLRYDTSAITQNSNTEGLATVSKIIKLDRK
In words: pull-down.

B1: His-She3p-N (N-terminal half of She3p, aa 1-234) (domain or fragment)
chain: MSDQDNTQTSSSKLAPHHNIFMANLESSPTKDRNTSSQNASSSRVIESLHDQIDMLTKTNLQLTTQSQNLLSKLELAQSKESKLLENLNLLKNENENLNSIFERKNKKLKELEKDYSELSNRYNEQKEKMDQLSKLAKNSSAIEQSCSEKLQNMEVNYNSLLESQNLYRDHYSDEISKLNEKIGLLELELSNQNLNYGSDTSSNSDIELNLNKFNDSVKDLKSLETEKDSKLSK
Turning to B1, the binding result is “binds”.
